The values that follow come from the supplement of paper PMC10567573.

B1: DLC1 (parent)
chain: AEVVKIRDSFSNQNTETKDTKSR
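Further: lentivirally expressed fusions sorted by FACS into six bins by GFP to DsRed ratio, PSI derived from sequencing read proportions per bin multiplied by bin number.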

In the data set the parent is B1. The data set can be described thus: protein stability index of a GFP-peptide fusion (GPS, HEK-293T) (PSI 1-6); higher = more stable. The settings on record: c terminus: native.
As to AEVVIIRDSFSNQNTETKDTKSR, the protein stability index was 2.02. With AEVVAIRDSFSNQNTETKDTKSR, the protein stability index amounted to 2. The same measure for AEVVNIRDSFSNQNTETKDTKSR: 2.93; for AEVVWIRDSFSNQNTETKDTKSR: 1.84; for AEVVVIRDSFSNQNTETKDTKSR: 1.94. To AEVVLIRDSFSNQNTETKDTKSR belongs 2.4; to AEVVPIRDSFSNQNTETKDTKSR, 2.67; to AEVVRIRDSFSNQNTETKDTKSR, 2.33. The same measure for AEVVGIRDSFSNQNTETKDTKSR: 3.3; for AEVVYIRDSFSNQNTETKDTKSR: 2.13; for AEVVDIRDSFSNQNTETKDTKSR: 3.23. As for AEVVTIRDSFSNQNTETKDTKSR, the protein stability index is 2.88. With AEVVEIRDSFSNQNTETKDTKSR, the protein stability index came to 3.01. Turning to AEVVMIRDSFSNQNTETKDTKSR, the protein stability index was found to be 2.09. As to AEVVHIRDSFSNQNTETKDTKSR, the protein stability index is 2.58.

Take AEVVCIRDSFSNQNTETKDTKSR: the protein stability index is 2.88. As for AEVVSIRDSFSNQNTETKDTKSR, the protein stability index was found to be 2.77. Take AEVVQIRDSFSNQNTETKDTKSR: the protein stability index came to 2.43. Take AEVVKIKDSFSNQNTETKDTKSR: the protein stability index stood at 2.88. To AEVVKIFDSFSNQNTETKDTKSR belongs 3.38; to AEVVKIPDSFSNQNTETKDTKSR, 3.24. For the variant AEVVKIEDSFSNQNTETKDTKSR, the protein stability index was 2.99. To AEVVKIWDSFSNQNTETKDTKSR belongs 1.69; to AEVVKIHDSFSNQNTETKDTKSR, 2.21.

With AEVVKIYDSFSNQNTETKDTKSR, the protein stability index came out at 1.77. To AEVVKINDSFSNQNTETKDTKSR belongs 3.31; to AEVVKILDSFSNQNTETKDTKSR, 3.01. The same measure for AEVVKICDSFSNQNTETKDTKSR: 2.5; for AEVVKIGDSFSNQNTETKDTKSR: 2.87; for AEVVKIIDSFSNQNTETKDTKSR: 2.52.

In the case of AEVVKIDDSFSNQNTETKDTKSR, the protein stability index worked out at 3.65. As to AEVVKIMDSFSNQNTETKDTKSR, the protein stability index turned out to be 3.19. To AEVVKIVDSFSNQNTETKDTKSR belongs 3.12; to AEVVKIADSFSNQNTETKDTKSR, 3.56; to AEVVKISDSFSNQNTETKDTKSR, 2.42. The same measure for AEVVKIRDSFENQNTETKDTKSR: 2.4. With AEVVKIRDSFNNQNTETKDTKSR, the protein stability index stood at 4.69.

As to AEVVKIRDSFPNQNTETKDTKSR, the protein stability index turned out to be 2.54.

With AEVVKIRDSFTNQNTETKDTKSR, the protein stability index stood at 2.48. Regarding AEVVKIRDSFWNQNTETKDTKSR, the protein stability index worked out at 1.88.

In the case of AEVVKIRDSFHNQNTETKDTKSR, the protein stability index was found to be 2.61. The same measure for AEVVKIRDSFDNQNTETKDTKSR: 2.05. For AEVVKIRDSFKNQNTETKDTKSR, the protein stability index stood at 3.15.

As for AEVVKIRDSFLNQNTETKDTKSR, the protein stability index turned out to be 1.88. To AEVVKIRDSFQNQNTETKDTKSR belongs 2.62; to AEVVKIRDSFANQNTETKDTKSR, 1.9. The same measure for AEVVKIRDSFYNQNTETKDTKSR: 2.65. Turning to AEVVKIRDSFMNQNTETKDTKSR, the protein stability index is 1.46. The same measure for AEVVKIRDSFRNQNTETKDTKSR: 2.78. Take AEVVKIRDSFVNQNTETKDTKSR: the protein stability index was found to be 2.35.

With AEVVKIRDSFINQNTETKDTKSR, the protein stability index is 1.9. The same measure for AEVVKIRDSFGNQNTETKDTKSR: 2.36; for AEVVKIRDSFFNQNTETKDTKSR: 2.85; for AEVVKIRDSFCNQNTETKDTKSR: 2.58. To ARVVKIRDSFSNQNTETKDTKSR belongs 1.88; to AMVVKIRDSFSNQNTETKDTKSR, 1.63.

In the case of AQVVKIRDSFSNQNTETKDTKSR, the protein stability index turned out to be 1.79. Turning to AYVVKIRDSFSNQNTETKDTKSR, the protein stability index amounted to 1.52. Take ATVVKIRDSFSNQNTETKDTKSR: the protein stability index is 3.03. To AVVVKIRDSFSNQNTETKDTKSR belongs 1.7. To ANVVKIRDSFSNQNTETKDTKSR belongs 2.04; to ASVVKIRDSFSNQNTETKDTKSR, 2.75; to AEVVKIRDSRSNQNTETKDTKSR, 4.5. On to AEVVKIRDSQSNQNTETKDTKSR, for which the protein stability index was 3.46.

As for AEVVKIRDSPSNQNTETKDTKSR, the protein stability index turned out to be 3.63.

Take AEVVKIRDSCSNQNTETKDTKSR: the protein stability index turned out to be 2.54. To AEVVKIRDSKSNQNTETKDTKSR belongs 4.18; to AEVVKIRDSLSNQNTETKDTKSR, 3.26; to AEVVKIRDSMSNQNTETKDTKSR, 2.93. Consider AEVVKIRDSVSNQNTETKDTKSR, for which the protein stability index worked out at 2.95.

AEVVKIRDSNSNQNTETKDTKSR: the protein stability index is 3.64. With AEVVKIRDSHSNQNTETKDTKSR, the protein stability index amounted to 3.71. The same measure for AEVVKIRDSSSNQNTETKDTKSR: 4. The same measure for AEVVKIRDSTSNQNTETKDTKSR: 3.68. Regarding AEVVKIRDSASNQNTETKDTKSR, the protein stability index came to 3.76. For the variant AEVVKIRDSESNQNTETKDTKSR, the protein stability index came out at 3.46. To AEVVKIRDSYSNQNTETKDTKSR belongs 2.53; to AEVVKIRDSGSNQNTETKDTKSR, 4.24.

AEVVKIRDSISNQNTETKDTKSR: the protein stability index was determined as 2.32. AEVVKIRDSDSNQNTETKDTKSR: the protein stability index was 4. For AEVVKGRDSFSNQNTETKDTKSR, the protein stability index turned out to be 2.38. The same measure for AEVVKARDSFSNQNTETKDTKSR: 2.47; for AEVVKCRDSFSNQNTETKDTKSR: 2.43. In the case of AEVVKMRDSFSNQNTETKDTKSR, the protein stability index was 2.64. To AEVVKERDSFSNQNTETKDTKSR belongs 3.33. Consider AEVVKRRDSFSNQNTETKDTKSR, for which the protein stability index came out at 3.18. For the variant AEVVKLRDSFSNQNTETKDTKSR, the protein stability index stood at 2.74. AEVVKKRDSFSNQNTETKDTKSR: the protein stability index worked out at 3.3. The same measure for AEVVKDRDSFSNQNTETKDTKSR: 2.79. The same measure for AEVVKPRDSFSNQNTETKDTKSR: 3.4; for AEVVKYRDSFSNQNTETKDTKSR: 2.65. The same measure for AEVVKTRDSFSNQNTETKDTKSR: 3.6.

Regarding AEVVKFRDSFSNQNTETKDTKSR, the protein stability index was found to be 2.41. As for AEVVKHRDSFSNQNTETKDTKSR, the protein stability index amounted to 2.42. To AEVVKSRDSFSNQNTETKDTKSR belongs 2.74; to AEVVKVRDSFSNQNTETKDTKSR, 2.74; to AEVVKQRDSFSNQNTETKDTKSR, 2.67.
